These results are taken from patent US20180186871A1 (SINGAPORE HEALTH SERVICES PTE, published 2018).

Experiment [1] has as its target T1, human IL-11 (human, UniProt P20809 22-199).
T1 construct: In the ELISAs this is recombinant human IL-11 coated on the plate (expressed in CHO cells as Fc-tagged and tag-free versions); In the fibroblast assays it is the IL-11 produced by human fibroblasts after TGFβ1 stimulation; also called recombinant human IL-11 (GenScript Cat. No. Z03108-1); interleukin 11
T1 sequence (looked up): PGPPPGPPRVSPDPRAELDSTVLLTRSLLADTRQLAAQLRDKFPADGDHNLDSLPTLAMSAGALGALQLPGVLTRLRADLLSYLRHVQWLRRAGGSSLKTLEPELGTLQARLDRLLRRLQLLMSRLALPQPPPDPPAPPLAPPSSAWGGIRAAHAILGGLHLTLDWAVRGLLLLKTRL
Nature of the experiment: EC50 from the indirect ELISA titrations of FIGS. 28A-28F on plate-coated recombinant human IL-11 (five-parameter fit), ng/ml is the concentration unit of FIG. 28 and paragraph 502. (In an ELISA, binding on a coated surface is turned into a signal by an enzyme label.)

The target in experiment [2] is T1, human IL-11. Nature of the experiment: EC50 by indirect ELISA on plate-coated recombinant human IL-11 (five-parameter fit); no titration curve of Yu33-B4 is drawn in FIGS. 28A-28F, ng/ml is the concentration unit of FIG. 28 and paragraph 502.
Experiment [3] addresses T1, human IL-11. Briefly: indirect ELISA on plate-coated recombinant human IL-11 (1 µg/mL), detection with HRP anti-human IgG (Fc-specific), absorbance 450-570 nm.

B1: YU33-B4/YU45-G2/A3 (Fc fusion)
VH: EVQLVESGGGVVQPGRSLRLSCAASGFTFSSYGMHWVRQAPGKGLEWVAVISYDGSNKYYADSVKGRFTISRDNSKNTLYLQMNSLRAEDTAVYYCAKIGATDPLDYWGQGTLVTVSS
VL: QSALTQPASVSGSPGQSITISCTGTSSDVGGYNYVSWYQQHPGKAPKLMIYDVSNRPSGVSNRFSGSKSGNTASLTIFGLQAEDEADYYCSSYTSSSSWVFGGGTKLTVL
notes: tested as scFv-Fc (human IgG1)
B1: the values for the EC50 with human IL-11 [1] and with human IL-11 [2] were 0.0142 µg/mL and 0.198 µg/mL, respectively.

B2: Yu33-A2 (IgG) (antibody, V domains shown)
VH: QLQQSGPGLVKPSQTLSLTCAISGDSVSSNSAAWNWIRQSPSRGLEWLGRTYYRSKWYNDYAVSVKSRITINPDTSKNQFTLQLNSVTPDDTAVYYCARGTRGYFDYWGQGTLVTVSS
VL: DVVMTQSPSSLSASVGDRVTITCRASQDVGRYVAWYQQKVGKVPRLLIYAASALQSGVPSRFSGTASETSFTLTISSLQPEDVASYYCQQYRSAPLAFGGGTGVEIK
notes: also called #1
As to B2, the binding result with human IL-11 [3] is recorded as “no binding (tested: 800 ng/ml)”.

As usually defined, the EC50 is the midpoint of the concentration-response curve.
